Measured values from paper PMC7368380 (Journal of the American Chemical Society, 2018).

Key:
[1] = target: fluorescein-labeled, wild-type FusA leader peptide (Thermobifida fusca); test: fluorescence polarisation
carboxypeptidase Y = target: T1, carboxypeptidase Y (Saccharomyces cerevisiae, UniProt P00729); test: carboxypeptidase Y digestion; type: in vitro ADME; settings: carboxypeptidase Y digestion for 18 h; analysis by MS (Fig. S11)
T1 sequence (P00729 112-532): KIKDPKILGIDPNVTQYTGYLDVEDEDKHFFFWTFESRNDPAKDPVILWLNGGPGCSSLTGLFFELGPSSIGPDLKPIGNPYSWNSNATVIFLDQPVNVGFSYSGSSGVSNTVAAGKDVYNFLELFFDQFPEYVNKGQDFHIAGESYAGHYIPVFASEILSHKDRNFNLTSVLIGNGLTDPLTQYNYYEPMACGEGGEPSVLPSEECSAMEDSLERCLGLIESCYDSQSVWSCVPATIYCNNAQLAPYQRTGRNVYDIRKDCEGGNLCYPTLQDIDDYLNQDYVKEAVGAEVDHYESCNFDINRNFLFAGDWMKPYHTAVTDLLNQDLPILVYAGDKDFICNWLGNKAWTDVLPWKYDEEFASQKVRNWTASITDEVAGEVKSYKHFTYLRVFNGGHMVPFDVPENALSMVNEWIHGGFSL

[2] = MALDI-TOF MS-based hydrogen-deuterium exchange assay; type: physicochemical; settings: H-D exchange, MALDI-TOF MS read-out (Fig. S10)
solubility = type: physicochemical; settings: qualitative statement; prevented NMR

FusE G31V variant (natural protein)
fold reduction of leader peptide binding against wild-type FusE [1]: 2 fold

FusE-D74A (natural protein)
fold reduction of affinity against wild-type FusE [1]: 8 fold

FusE-L78A (natural protein)
fold reduction of affinity against wild-type FusE [1]: 10 fold

fusilassin
outcome of carboxypeptidase Y digestion (carboxypeptidase Y): vast majority of the fusilassin peptide remained intact
time to full deuteration [2]: ~ 60 min
solubility characteristics (solubility): poor
